Test results published in paper PMC12889889.

These substances were tested against FcγRIIIa (V158 variant).

Substance	ADCC Reporter Bioassay (WIL2-S target cells, Jurkat/NFAT-luc + FcγRIIIa V158 effector cells), EC50 of luciferase induction [ng/mL]
Rituxan (rituximab), lot 3575428, untreated (antibody)	9.3
Truxima (rituximab-abbs), lot 1B1011, untreated (antibody)	9.09
Ruxience (rituximab-pvvr), lot GN4445, untreated (antibody)	6.06
Riabni (rituximab-arrx), lot 1141263, untreated (antibody)	13.6
